The results in this text go back to patent US20080260858A1, “Universal Procoagulant” (The Board of Trustees of the University of Illnois, priority 2005, published 2008).

A word on the Kd: it is a measure of binding affinity in units of concentration. By Km is commonly meant the substrate concentration at which the rate is half of its maximum.

Data set [1] concerns the target T1, VIIa (Homo sapiens, UniProt P08709).
T1 construct: VIIa or factor VIIa means coagulation factor VIIa (active enzyme); purchased American Diagnostica
T1 sequence (P08709 61-212): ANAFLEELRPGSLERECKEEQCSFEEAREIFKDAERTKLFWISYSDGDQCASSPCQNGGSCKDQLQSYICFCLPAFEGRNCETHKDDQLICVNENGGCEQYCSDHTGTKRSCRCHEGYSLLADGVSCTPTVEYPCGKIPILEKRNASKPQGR
T1 sequence (P08709 213-466): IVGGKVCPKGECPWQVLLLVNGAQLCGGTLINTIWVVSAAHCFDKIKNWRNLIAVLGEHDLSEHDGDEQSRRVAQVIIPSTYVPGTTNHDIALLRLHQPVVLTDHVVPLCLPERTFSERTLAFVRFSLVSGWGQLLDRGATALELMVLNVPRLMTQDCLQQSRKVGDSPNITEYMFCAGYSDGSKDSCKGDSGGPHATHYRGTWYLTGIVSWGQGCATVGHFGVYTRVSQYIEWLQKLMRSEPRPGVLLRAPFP
Description: Kd for VIIa binding to TF (X activation rate as readout). Conditions: purified proteins; membTF in PCPS liposomes; sTF-5AA-(His)6 plus NiPCPS liposomes; read-out: VIIa binding Kd. The procedure: When VIIa binds to TF, its rate of X activation increases dramatically, so this can be used as a convenient readout for TF:VIIa complex formation. […] Therefore, when the isolated TF ectodomain was attached to the membrane surface via interaction with metal-chelating lipids, its VIIa binding ability was indistinguishable from membTF that spanned the lipid bilayer.
Measurement of the Kd for VIIa binding to TF—The binding affinity of VIIa for various forms of TF was measured using the TF-dependent increase in the rate of X activation as the readout for TF:VIIa complex formation. Activation of X by the TF:VIIa complex was measured by adapting the continuous chromogenic assay of Fiore et al.. Reaction mixtures containing Vila and either rTF/PCPS or sTF+SUVs were prepared in HBSAC. Reactions were initiated by adding a mixture of X and the chromogenic substrate, S-2222, in a flat bottom, 96-well plate. Change in A405 was monitored at ambient temperature in a VERSAmax microplate reader (Molecular Devices), sampling every 15 sec for 20 min. Initial rates of X activation were determined by fitting a second-order polynomial to the A405 data as described. The quadratic ligand binding equation was fit to the rate data as described to derive apparent Kd values for the binding of VIIa to TF. For experiments using relipidated rTF, typical reaction mixtures containing 0.25 μM VIIa and 20 nM X in HBSAC were incubated with increasing concentrations of rTF/PCPS.

The target of data set [2] is T2, X activation by VIIa (Homo sapiens, UniProt P08709).
T2 construct: VIIa or factor VIIa means coagulation factor VIIa (active enzyme); purchased American Diagnostica
Description: Factor X activation using liposomes. It is filed as biochemical. Conditions: 500 pM VIIa, 4 pM TF, 50 μM total lipid; liposomes. The procedure: A stringent test of TF:VIIa function is its ability to support the activation of its natural protein substrate, X. This requires that TF be incorporated into a suitable phospholipid membrane (i.e., one containing negatively charged phospholipids). […] The ability of various forms of TF to support the activation of X was compared under equivalent concentrations of enzyme (500 pM VIIa), cofactor (4 pM TF) and liposomes (50 μM total lipid).
Factor X activation using liposomes. […] At varying times, 20 μl aliquots were removed into a 96-well plate containing 100 μl Stop Buffer 1 (40 mM Mes-NaOH pH 5.8, 12 mM EDTA, 50 mM NaCl, 0.25% Triton X-100, 0.1% NaN3, 0.012% Antifoam C) at 4° C. After warming the stopped reactions to room temperature, Xa was detected by adding 60 μl of 1.5 mM Spectrozyme Xa in HBSAC plus 0.6 M Tricine-NaOH, pH 8.4 and quantifying change in A405. Amounts of Xa generated were determined by comparison to a standard curve with purified Xa.

In data set [3] the target is T3, VII (Homo sapiens, UniProt P08709).
T3 construct: Purified plasma-derived VII, X and factor Xa (Xa) were from Enzyme Research Laboratories; purchased Enzyme Research Laboratories; host or cells: plasma
As to the kind of experiment: Factor VII autoactivation. It is filed as biochemical. The conditions noted are these: 15 nM VII and TF; 37° C.; liposomes. The procedure: An additional function of TF is to promote the autoactivation of VII in a reaction that is dependent on TF surface density.
Factor VII autoactivation. Rates of VII autoactivation were measured essentially as described. Equimolar concentrations of VII and TF (15 nM each) were incubated in HBSAC at 37° C. […] A 20 μl aliquot of 5 mM Chromozym t-PA substrate was added and the change in A405 was monitored at ambient temperature. Two-dimensional second-order rate constants (k2D) were determined as described.

T3 sequence (P08709 61-466, one chain of several): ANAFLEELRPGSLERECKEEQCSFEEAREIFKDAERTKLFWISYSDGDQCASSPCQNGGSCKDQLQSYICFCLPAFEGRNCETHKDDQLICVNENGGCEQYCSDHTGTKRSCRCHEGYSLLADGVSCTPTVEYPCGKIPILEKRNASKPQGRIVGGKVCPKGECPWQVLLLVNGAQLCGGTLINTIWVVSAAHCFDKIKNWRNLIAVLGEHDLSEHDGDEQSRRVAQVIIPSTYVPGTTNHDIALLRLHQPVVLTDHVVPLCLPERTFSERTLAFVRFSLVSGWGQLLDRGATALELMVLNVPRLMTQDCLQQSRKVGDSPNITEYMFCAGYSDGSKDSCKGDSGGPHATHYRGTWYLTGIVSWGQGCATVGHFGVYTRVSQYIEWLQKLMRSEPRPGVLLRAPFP

B1: membTF: recombinant membrane-bound tissue factor (protein, UniProt P13726 1-295, looked up)
chain: METPAWPRVPRPETAVARTLLLGWVFAQVAGASGTTNTVAAYNLTWKSTNFKTILEWEPKPVNQVYTVQISTKSGDWKSKCFYTTDTECDLTDEIVKDVKQTYLARVFSYPAGNVESTGSAGEPLYENSPEFTPYLETNLGQPTIQSFEQVGTKVNVTVEDERTLVRRNNTFLSLRDVFGKDLIYTLYYWKSSSSGKKTAKTNTNEFLIDVDKGENYCFSVQAVIPSRTVNRKSTDSPVECMGQEKGEFREIFYIIGAVVFVVIILVIILAISLHKCRKAGVGQSWKENSPLNVS
modifications: full-length
Regarding B1, the Kd in data set [1] turned out to be 0.01 nM. Further, in data set [2], the Km is 0.059 ± 0.00088 µM and the X activation kcat is 3.5 ± 0.38 s⁻¹. Further, in data set [3], the “VII autoactivation k2D” value was 3.4 (±0.15) × 10^7 m^2 mol^−1 s^−1.
